B1: Botryococcus braunii race B squalene synthase-like 1 (SSL-1), wild type, hexa-histidine tagged, SEQ ID NO: 2 (Botryococcus braunii) (protein)
chain: MTMHQDHGVMKDLVKHPNEFPYLLQLAATTYGSPAAPIPKEPDRAFCYNTLHTVSKGFPRFVMRLPQELQDPICIFYLLLRALDTVEDDMNLKSETKISLLRVFHEHCSDRNWSMKSDYGIYADLMERFPLVVSVLEKLPPATQQTFRENVKYMGNGMADFIDKQILTVDEYDLYCHYVAGSCGIAVTKVIVQFNLATPEADSYDFSNSLGLLLQKANIITDYNEDINEEPRPRMFWPQEIWGKYAEKLADFNEPENIDTAVKCLNHMVTDAMRHIEPSLKGMVYFTDKTVFRALALLLVTAFGHLSTLYNNPNVFKEKVRQRKGRIARLVMSSRNVPGLFRTCLKLANNFESRCKQETANDPTVAMTIKRLQSIQATCRDGLAKYDTPSGLKSFCAAPTPTK
B2: SSL-2: Botryococcus braunii race B squalene synthase-like 2 enzyme; bacterial form is truncated SSL-2-tr2 (protein)
chain: MVKLVEVLQHPDEIVPILQMLHKTYRAKRSYKDPGLAFCYGMLQRVSRSFSVVIQQLPDELRHPICVFYLILRALDTVEDDMNLPNEVKIPLLRTFHEHLFDRSWKLKCGYGPYVDLMENYPLVTDVFLTLSPGAQEVIRDSTRRMGNGMADFIGKDEVHSVAEYDLYCHYVAGLVGSAVAKIFVDSGLEKENLVAEVDLANNMGQFLQKTNVIRDYLEDINEEPAPRMFWPREIWGKYAQELADFKDPANEKAAVQCLNHMVTDALRHCEIGLNVIPLLQNIGILRSCLIPEVMGLRTLTLCYNNPQVFRGVVKMRRGETAKLFMSIYDKRSFYQTYLRLANELEAKCKGEASGDPMVATTLKHVHGIQKSCKAALSSKELLAKSGSALTDDPAIRLLLLVGVVAYFAYAFNLGDVRGEHGVRALGSILDLSQKGLAVASVALLLLVLLARSRLPLLTSASSKQ

Experiments:
[1] = Primary enzyme assay with 3H-FPP, PSPP content by acid phosphatase assay; format: biochemical; settings: 20 μg enzyme, 40 μM 3H-FPP, 37° C., 1 h
Method: (§1) Two primary enzyme assays (500 μl) were set up with 20 μg of purified SSL-1 or Nicotiana benthamiana squalene synthase (TSS) plus 40 μM ^3H-FPP. The assays were incubated at 37° C. for 1 h, then extracted 3× with 500 μl water saturated 1-butanol, pooled, and evaporated under a stream of nitrogen gas. The white residue was resuspended in 50 μl of 25 mM NH4HCO3 in 70% ethanol (v/v). An aliquot of the resuspension was analyzed by the acid phosphatase assay (described in supplemental FIG. 4) and shown to consist of 45% and 40% PSPP for the SSL-1 and TSS primary incubations, respectively. […] It was calculated that 1 μl of each resuspension contained ˜150 pmoles of 3H-PSPP. […] For comparison, enzyme assays were also set up containing 3 μM ^3H-FPP, 2 mM NADPH and either 1 μg each of SSL-1 plus SSL-3, or SSL-1 plus SSL-2. Additional control assays contained 5 μM ^3H-FPP, 2 mM NADPH, and either 1 μg of SSL-3 or SSL-2. The reactions were incubated at 37° C. for 15 min, stopped by addition of 50 μl 0.5 M EDTA, and extracted with 100 μl n-hexane. Aliquots of the hexane extracts, along with standards of squalene and botryococcene, were separated by silica TLC using n-hexane as the developing solvent. Standards were visualized with iodine vapors and the corresponding zones were analyzed by scintillation spectroscopy. […]

[2] = Secondary enzyme assays of SSL-3 or SSL-2 with PSPP versus FPP; format: biochemical; settings: 2 mM NADPH, 1 μg enzyme, 37° C., 15 min
Method: as §1

Row | Molecule | PSPP share of reaction product of primary incubation [1] [%] | biosynthesis from PSPP versus FPP [2]
1 | B1 | 45 | –
2 | B2 | – | efficiently catalyze the biosynthesis of squalene and botryococcene, respectively, from PSPP but not FPP
